From patent US20200399314A1 (MEDIKINE, published 2020)
Bridge positions count the residues as written; N and C are the ends. Ends that are not written are not given here.

Molecular target: T1, human IL-2Rα subunit (human, UniProt P01589 22-213, limits assumed)
T1 construct: also called CD25
T1 sequence (looked up): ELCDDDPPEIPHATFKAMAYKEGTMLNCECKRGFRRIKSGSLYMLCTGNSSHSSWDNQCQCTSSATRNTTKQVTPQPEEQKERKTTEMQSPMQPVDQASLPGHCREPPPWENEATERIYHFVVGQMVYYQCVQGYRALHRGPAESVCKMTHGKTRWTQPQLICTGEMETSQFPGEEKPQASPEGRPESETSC

## VRMCYVAPGYVSCPRM [SEQ ID NO 104]
  IC50: < 100 µM

## FIPWDEYFKQVL [SEQ ID NO 9]
  IC50: < 100 µM

## FFLCDDFPGLPRCEWI [SEQ ID NO 128]
  IC50: < 100 µM

## SWECVYMPGHQGCRLF [SEQ ID NO 101]
  IC50: < 100 µM

## GSRCYWDPGREVCIFK [SEQ ID NO 91]
  IC50: < 100 µM

## FWECVYSPGSRGCRMV (disulfide 4-13 (inferred)) [SEQ ID NO 93]
  IC50: < 100 µM

## GFRCTYDPGTHSCWSI [SEQ ID NO 94]
  IC50: < 100 µM

## AGWCKLNPGTQVCSFY (disulfide 4-13 (inferred)) [SEQ ID NO 126]
  IC50: < 100 µM

## EWECRFLPGRRGCSLF [SEQ ID NO 92]
  IC50: < 100 µM

## DWHCLFLPGHRGCTLF (disulfide 4-13 (inferred)) [SEQ ID NO 117]
  IC50: < 100 µM

## AWECLFLPGHRGCSLF [SEQ ID NO 112]
  IC50: < 100 µM

## GLRCYFDPGSQICTFL [SEQ ID NO 129]
  IC50: < 100 µM

## RLFCLMNPGPPDCWIY [SEQ ID NO 134]
  IC50: < 100 µM

## KLWCQNNPGNSICDMY [SEQ ID NO 132]
  IC50: < 100 µM

## KSWCFDHPGYPICQFY [SEQ ID NO 133]
  IC50: < 100 µM

## FIPWDEYFAQLL [SEQ ID NO 8]
  IC50: < 100 µM

## VYECLFMPGRKGCFGM [SEQ ID NO 115]
  IC50: < 100 µM

## GQRCTYDPGQDACVFS [SEQ ID NO 130]
  IC50: < 100 µM

## FVPWDVYFSQIL [SEQ ID NO 10]
  IC50: < 100 µM

## DWECLFLPGRRGCTLF (disulfide 4-13 (inferred)) [SEQ ID NO 118]
  IC50: < 100 µM

## DWECLFLPGRRGCLLF [SEQ ID NO 110]
  IC50: < 100 µM

## DWECIFLPGRRGCTLF (disulfide 4-13 (inferred)) [SEQ ID NO 114]
  IC50: < 100 µM

## GSRCYWDPGREVCIFK [SEQ ID NO 131]
  IC50: < 100 µM

## ETPCDLHPGHWSCSMV [SEQ ID NO 127]
  IC50: < 100 µM

## VRLCRVGPGYESCPAN [SEQ ID NO 103]
  IC50: < 100 µM

## EWECLFLPGRKGCTLF [SEQ ID NO 113]
  IC50: < 100 µM

## VRFCRSGPGWVSCGTQ [SEQ ID NO 102]
  IC50: < 100 µM

## YWECVFMPGHRGCSLI [SEQ ID NO 119]
  IC50: < 100 µM

## SLNCKTRPGLRWCTWT [SEQ ID NO 100]
  IC50: < 100 µM

## RWECIYIPGRKGCTLQ [SEQ ID NO 99]
  IC50: < 100 µM

## EWECWFLPGRRGCTLI [SEQ ID NO 116]
  IC50: < 100 µM

## EWECLFMPGRRGCLLM (disulfide 4-13 (inferred)) [SEQ ID NO 111]
  IC50: < 100 µM

## QWSCVFSPGVRGCKLV (disulfide 4-13 (inferred)) [SEQ ID NO 97]
  IC50: < 100 µM

## NWECIFSPGRRGCSLT [SEQ ID NO 121]
  IC50: < 100 µM

## TWDCLFLPGRRGCTLM [SEQ ID NO 120]
  IC50: < 100 µM

## NWECIFSPGRRGCSLT [SEQ ID NO 109]
  IC50: < 100 µM

## KWICRLVPGNGACHSF [SEQ ID NO 95]
  IC50: < 100 µM

## RFICRIQPGREGCWSL [SEQ ID NO 98]
  IC50: < 100 µM

## PWVCEHYPGRRGCVLM (disulfide 4-13 (inferred)) [SEQ ID NO 96]
  IC50: < 100 µM
